Laboratory results from article PMC6203816 (Nature Communications, 2018).

B1: 830 A (antibody, V domains shown)
VH: QVQLQQWGPGLLKPSETLSLTCAVYGGSFGRYYWSWIRQSSGEGLEWLGQIDHTGSTTYNPSLKGRVTISIDSSTNQFSLKVTSVIAADTAVYYCARAPSGYPGVSLYQYYGLDVWGQGTTVTVSS
VL: DTVMTQSPATLSVSPGERVTLSCRASQIINTNLAWYQKRPGQAPRLLIYAASARATGIPARFSGSGSGTEFTLTISGLQSEDSAVYYCQQYKHWPPYTFGRGTKLEIR
notes: also called V2i mAb 830 A
B2: CAP228-3D IgG1 (antibody, V domains shown)
VH: EVQLVQSGAEVKKPGESLKISCKGFGYSFSTYWIAWVRQMPGKGLEWMGMIYPGDSDTKYSPSLQGQVTISGDKSISTAYLQWSSLKASDTAMYYCARLLNNYDSSGFLYWYLDLWGRGTLVTVSS
VL: NFMLTQPHSVSESPGKTVTISCTRSSGSIASDYVQWYQQRPGSSPTTVIYEDNQRPSGVPDRFSGSIDSSSNSASLTISGLKTEDEADYYCQSYDMTNHNWVFGGGTKLTVL

Biological target: C1080 envelope on concentrated pseudovirus particles (HIV-1 strain C1080 (clone C1080.c3 …, UniProt I6NF57, strain))
Test: ELISA
Settings: one partner purified

Row | Binder | binding result
1 | B1 | binds
2 | B2 | binds
